Data: PMC9465349, “G protein–coupled receptor kinase phosphorylation of distal C-tail sites specifies βarrestin1-mediated signaling by chemokine receptor CXCR4” (The Journal of Biological Chemistry, 2022)

B1: βarrestin1-GFP10 (natural protein, UniProt P49407 1-418, looked up)
chain: MGDKGTRVFKKASPNGKLTVYLGKRDFVDHIDLVDPVDGVVLVDPEYLKERRVYVTLTCAFRYGREDLDVLGLTFRKDLFVANVQSFPPAPEDKKPLTRLQERLIKKLGEHAYPFTFEIPPNLPCSVTLQPGPEDTGKACGVDYEVKAFCAENLEEKIHKRNSVRLVIRKVQYAPERPGPQPTAETTRQFLMSDKPLHLEASLDKEIYYHGEPISVNVHVTNNTNKTVKKIKISVRQYADICLFNTAQYKCPVAMEEADDTVAPSSTFCKVYTLTPFLANNREKRGLALDGKLKHEDTNLASSTLLREGANREILGIIVSYKVKVKLVVSRGGLLGDLASSDVAVELPFTLMHPKPKEEPPHREVPENETPVDTNLIELDTNDDDIVFEDFARQRLKGMKDDKEEEEDGTGSPQLNNR
notes: βarrestin1 (βarr1); plasmid a gift from Michel Bouvier; Gift plasmid; also called βarr1-GFP; βarr1-GFP^10; source: HEK293, transiently transfected (PEI), in live cells
B2: STAM1 (signal-transducing adaptor molecule 1) tagged at the N terminus with Rluc8 (natural protein, UniProt Q92783 1-540, looked up)
chain: MPLFATNPFDQDVEKATSEMNTAEDWGLILDICDKVGQSRTGPKDCLRSIMRRVNHKDPHVAMQALTLLGACVSNCGKIFHLEVCSRDFASEVSNVLNKGHPKVCEKLKALMVEWTDEFKNDPQLSLISAMIKNLKEQGVTFPAIGSQAAEQAKASPALVAKDPGTVANKKEEEDLAKAIELSLKEQRQQSTTLSTLYPSTSSLLTNHQHEGRKVRAIYDFEAAEDNELTFKAGEIITVLDDSDPNWWKGETHQGIGLFPSNFVTADLTAEPEMIKTEKKTVQFSDDVQVETIEPEPEPAFIDEDKMDQLLQMLQSTDPSDDQPDLPELLHLEAMCHQMGPLIDEKLEDIDRKHSELSELNVKVMEALSLYTKLMNEDPMYSMYAKLQNQPYYMQSSGVSGSQVYAGPPPSGAYLVAGNAQMSHLQSYSLPPEQLSSLSQAVVPPSANPALPSQQTQAAYPNTMVSSVQGNTYPSQAPVYSPPPAATAAAATADVTLYQNAGPNMPQVPNYNLTSSTLPQPGGSQQPPQPQQPYSQKALL
notes: STAM1 (signal-transducing adaptor molecule 1); the plasmid holds 'the STAM1-coding region' in pcDNA3; New plasmid; Rluc8 fragment from pTRE-Tight-Rluc8 (Addgene 79844); also called Rluc8-STAM1; RLuc8-STAM1; source: HEK293, transiently transfected (PEI), in live cells; not shown: Rluc8, N-terminal, kept

Tests used:
Details in all cases: partners not purified
[1] = biological target: T1, NTS1-Rluc8 (neurotensin receptor 1) (UniProt P30989 1-418); assay: FRET or BRET; BRET2 in live HEK293 cells coexpressing a GPCR tagged with Rluc (CXCR4-Rluc3, or GPCR-Rluc8; donor) and βarr1-GFP10 (acceptor); increasing concentrations of the receptor's agonist at 37 °C; vehicle or 1 μM Gö6983 (little effect, CXCR4)
T1 construct: neurotensin receptor 1 (NTS1); 'the NTS1-coding region' amplified by PCR from the NTS1-Tango plasmid; New plasmid; source: HEK293, transiently transfected (PEI), in live cells

CXCR4-Rluc3 [2] = biological target: T2, CXCR4-Rluc3 (UniProt P61073 1-352); assay: as above
T2 construct: chemokine receptor CXCR4; plasmid a gift from Nikolaus Heveker; Gift plasmid; also called Rluc3-tagged CXCR4; source: HEK293, transiently transfected (PEI), in live cells

CXCR4-Rluc3 [3] = biological target: T2, CXCR4-Rluc3; assay: FRET or BRET; as a13 for CXCR4-Rluc3 and βarr1-GFP, but in the presence of 30 μM GRK2/3 inhibitor compound 101
βarrestin1-GFP10 [4] = biological target: B1; assay: FRET or BRET; BRET2 in live HEK293 cells coexpressing FLAG-NTS1, Rluc8-STAM1 and βarr1-GFP; increasing concentrations of neurotensin, 10 min, 37 °C
βarrestin1-GFP10 [5] = biological target: B1; assay: FRET or BRET; BRET2 in live HEK293 cells coexpressing FLAG-AT1a, Rluc8-STAM1 and βarr1-GFP; increasing concentrations of angiotensin II, 10 min, 37 °C

T2 sequence (P61073 whole entry): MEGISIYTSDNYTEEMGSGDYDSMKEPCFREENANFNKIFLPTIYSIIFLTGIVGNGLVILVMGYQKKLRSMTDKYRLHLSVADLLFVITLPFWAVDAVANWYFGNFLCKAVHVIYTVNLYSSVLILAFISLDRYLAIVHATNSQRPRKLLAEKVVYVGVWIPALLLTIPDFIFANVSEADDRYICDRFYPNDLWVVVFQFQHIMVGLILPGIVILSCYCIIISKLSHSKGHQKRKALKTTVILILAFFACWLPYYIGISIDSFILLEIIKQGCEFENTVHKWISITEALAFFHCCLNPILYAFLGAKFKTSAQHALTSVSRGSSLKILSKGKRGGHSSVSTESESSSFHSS
T1 sequence (P30989 whole entry): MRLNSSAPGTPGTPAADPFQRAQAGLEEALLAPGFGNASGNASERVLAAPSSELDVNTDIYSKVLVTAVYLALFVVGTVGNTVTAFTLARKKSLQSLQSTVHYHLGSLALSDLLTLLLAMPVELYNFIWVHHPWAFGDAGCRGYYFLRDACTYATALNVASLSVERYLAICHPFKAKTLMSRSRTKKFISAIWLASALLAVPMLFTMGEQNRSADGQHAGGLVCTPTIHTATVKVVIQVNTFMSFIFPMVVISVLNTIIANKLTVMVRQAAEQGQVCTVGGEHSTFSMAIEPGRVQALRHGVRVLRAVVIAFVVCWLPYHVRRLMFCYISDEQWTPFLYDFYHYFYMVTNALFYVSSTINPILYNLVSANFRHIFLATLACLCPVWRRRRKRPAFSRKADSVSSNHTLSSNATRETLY

potency (EC50) of the agonist neurotensin for the BRET response [1] [nM] | EC50 of the agonist CXCL12 for the BRET response (vehicle) (CXCR4-Rluc3 [2]) [nM] | EC50 of the agonist CXCL12 for the BRET response (with GRK2/3 inhibitor compound 101) (CXCR4-Rluc3 [3]) [nM] | potency (EC50) of the agonist neurotensin for the BRET response (βarrestin1-GFP10 [4]) [nM] | potency (EC50) of the agonist angiotensin II for the BRET response (βarrestin1-GFP10 [5]) [nM] | Binder
0.13 | 0.3 | 7.79 | – | – | B1
– | – | – | 0.22 | 70 | B2
